# According to patent US20140315822A1 (INSTITUT PASTEUR, published 2014):
# B1: PDZ domain of the human MAST2 protein (other)
# chain: MRPPIIIHRAGKKYGFTLRAIRVYMGDSDVYTVHHMVWHVEDGGPASEAGLRQGDLITHVNGEPVHGLVHTEVVELILKSGNKVAISTTPLEN
binder,measurement,setting,value
B1,Kd,443,400 nM
same,Kd,455,130 nM
same,Kd,453,238 nM
same,Kd,461,126 nM
same,Kd,439,210 nM
same,Kd,460,188 nM
